{
  "source": "patent US20040229298A1",
  "assay_in_all_cases": "G assay ELISA, E6 PL peptide titrated on constant GST-PDZ",
  "key": {"[1]": {"target": "GST-PSD95 PDZ domains 1-3 (human), P78352"}, "[2]": {"target": "GST-SAST1 PDZ domain (human), Q9Y2H9", "sequence (Q9Y2H9 other isoform, or with tags, fused parts or gaps limits assumed)": "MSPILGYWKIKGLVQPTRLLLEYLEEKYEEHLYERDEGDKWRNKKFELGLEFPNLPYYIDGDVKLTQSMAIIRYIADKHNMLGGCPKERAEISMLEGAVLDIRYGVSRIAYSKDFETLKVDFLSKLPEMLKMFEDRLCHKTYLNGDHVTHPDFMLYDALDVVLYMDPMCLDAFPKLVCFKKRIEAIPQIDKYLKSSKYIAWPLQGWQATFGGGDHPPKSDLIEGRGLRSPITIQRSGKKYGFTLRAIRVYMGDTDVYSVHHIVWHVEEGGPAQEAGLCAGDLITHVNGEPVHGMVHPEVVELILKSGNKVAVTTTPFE"}, "[3]": {"target": "GST-SIP1 PDZ domain 1 (human)"}, "[4]": {"target": "GST-DLG3 PDZ domains 1-2 (human), Q92796", "sequence (Q92796 other isoform, or with tags, fused parts or gaps limits assumed)": "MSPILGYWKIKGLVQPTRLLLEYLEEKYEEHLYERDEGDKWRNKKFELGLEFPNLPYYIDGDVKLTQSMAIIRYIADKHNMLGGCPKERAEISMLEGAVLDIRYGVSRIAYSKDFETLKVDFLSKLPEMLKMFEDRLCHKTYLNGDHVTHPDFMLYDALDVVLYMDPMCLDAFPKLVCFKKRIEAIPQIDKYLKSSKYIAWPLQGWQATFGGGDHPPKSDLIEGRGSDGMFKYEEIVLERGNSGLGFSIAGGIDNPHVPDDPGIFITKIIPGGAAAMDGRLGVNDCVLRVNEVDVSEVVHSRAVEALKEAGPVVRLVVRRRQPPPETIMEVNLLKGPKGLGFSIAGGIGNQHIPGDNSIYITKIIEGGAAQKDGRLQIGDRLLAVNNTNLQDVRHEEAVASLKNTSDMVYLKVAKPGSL"}, "[5]": {"target": "GST-DLG2 PDZ domain 3 (human)"}, "[6]": {"target": "GST-SAST2 PDZ domain 1 (human)"}, "[7]": {"target": "GST-TIP1 PDZ domain (human)"}, "[8]": {"target": "GST-MAGI1 PDZ domain 2 (human)"}, "[9]": {"target": "GST-PSD95 PDZ domain 2 (human)"}},
  "note": "Ends that are not written are not given here.",
  "data": [
    {"binder": "WTGRCMSCCRSSRTRRETQL (not fully specified; cysteine pairing not given here)", "note": "[HPV16 E6 C-terminal PDZ ligand peptide (20 mer, biotinylated), P03126 139-158]", "values": [
      {"measurement": "EC50", "setting": "[1]", "value": 1000, "unit": "nM"},
      {"measurement": "EC50", "setting": "[2]", "value": 580, "unit": "nM"},
      {"measurement": "EC50", "setting": "[3]", "value": 7500, "unit": "nM"},
      {"measurement": "EC50", "setting": "[4]", "value": 3800, "unit": "nM"},
      {"measurement": "EC50", "setting": "[5]", "value": 1600, "unit": "nM"},
      {"measurement": "EC50", "setting": "[6]", "value": 1200, "unit": "nM"},
      {"measurement": "EC50", "setting": "[7]", "value": 750, "unit": "nM"},
      {"measurement": "EC50", "setting": "[8]", "value": 56, "unit": "nM"},
      {"measurement": "EC50", "setting": "[9]", "value": 6800, "unit": "nM"}
    ]}
  ]
}
